This is an account of results in patent US20220089784A1 (University of California, published 2022).

The chains are these.
B1: 8DC11 scFv (scFv, V domains shown)
VH: QVQLVESGPGLVKPSQTLSLSCTVSGGSVNHYYWNWIRQPPGKGLEWIGYIFYNGRTNYNPSLKSRVTMSVDTSKNQISLKLRSVTAADTAVYYCAREGARGYCSSTSCHDAFDIWGRGTLVTVSS
VL: EIVLTQSPSFLSASVGDRVTITCRASQGIRNDLAWFQQKPGKAPKLLIYATSTLQSGVPSRFSGSGSGTDFTLTISSLQPEDFADYYCQQAASFPLTFGGGTKVDIK
notes: human
B2: 8DC12 scFv (scFv, V domains shown)
VH: QVQLVQSGGGVVQPGRSLRLSCAASGFTFSSYGMHWVRQAPGKGLEWVAAISYDGSNKYYADSVKGRFTISRDNSKNTLYLQMNSLRAEDTAVYYCAKGEHFVVVTAFATWGQGTLVTVSS
VL: DIVMTQSPSFLSASIGDRVTITCRASQSISNWLAWYQQKPGKAPKVLVYKASSLENGVPSRFSGSGSGTDFTLTITSLQPDDFATYYCQQYNAYPLTFGGGTKVEIK
notes: human
B3: 8DC14 scFv (scFv, V domains shown)
VH: QVQLVQSGGGVVQPGRSLRLSCVASGFTFSSYTMHWVRQAPGEGLEWVAGISNDGRNQYYSDSVKGRATISRDNSKDTLYLQMHSLRAEDTAVYYCAKANYHFILATTFHSWGQGTLVTVSS
VL: DIVMTQSPSSVSASVGDRVTITCRASQGISSWLAWYQQKPGKAPKLLIYAASSLQSGVPSRFSGSGSGTDFTLTISRLQPEDVATYYCQRYNSLPFTFGGGTKLEIK
notes: human
B4: 8DC13 scFv (scFv, V domains shown)
VH: QVQLVQSGAEVKKPGASVKVSCKASGYTFTGYYIHWVRQAPGQGLEWMGRINPNSGGANYAHKFQGRVTMTRDTSSNTAYMEVSRLKSDDTAVYYCARRRAVANLDYHYYGMDVWGQGTTVTVSS
VL: DIVMTQSPSTLSASVGARVTITCRASQNINTYLNWYHQKPGKAPKLLIYAASSLQSGVPSRFSGSGSGTDFTLTISSLQPEDFATYYCQQSYSTPHTFGGGTKLEIK
notes: human

The first test addresses T1, BoNT/C1 holotoxin (Clostridium botulinum, UniProt P18640 2-1291).
T1 sequence: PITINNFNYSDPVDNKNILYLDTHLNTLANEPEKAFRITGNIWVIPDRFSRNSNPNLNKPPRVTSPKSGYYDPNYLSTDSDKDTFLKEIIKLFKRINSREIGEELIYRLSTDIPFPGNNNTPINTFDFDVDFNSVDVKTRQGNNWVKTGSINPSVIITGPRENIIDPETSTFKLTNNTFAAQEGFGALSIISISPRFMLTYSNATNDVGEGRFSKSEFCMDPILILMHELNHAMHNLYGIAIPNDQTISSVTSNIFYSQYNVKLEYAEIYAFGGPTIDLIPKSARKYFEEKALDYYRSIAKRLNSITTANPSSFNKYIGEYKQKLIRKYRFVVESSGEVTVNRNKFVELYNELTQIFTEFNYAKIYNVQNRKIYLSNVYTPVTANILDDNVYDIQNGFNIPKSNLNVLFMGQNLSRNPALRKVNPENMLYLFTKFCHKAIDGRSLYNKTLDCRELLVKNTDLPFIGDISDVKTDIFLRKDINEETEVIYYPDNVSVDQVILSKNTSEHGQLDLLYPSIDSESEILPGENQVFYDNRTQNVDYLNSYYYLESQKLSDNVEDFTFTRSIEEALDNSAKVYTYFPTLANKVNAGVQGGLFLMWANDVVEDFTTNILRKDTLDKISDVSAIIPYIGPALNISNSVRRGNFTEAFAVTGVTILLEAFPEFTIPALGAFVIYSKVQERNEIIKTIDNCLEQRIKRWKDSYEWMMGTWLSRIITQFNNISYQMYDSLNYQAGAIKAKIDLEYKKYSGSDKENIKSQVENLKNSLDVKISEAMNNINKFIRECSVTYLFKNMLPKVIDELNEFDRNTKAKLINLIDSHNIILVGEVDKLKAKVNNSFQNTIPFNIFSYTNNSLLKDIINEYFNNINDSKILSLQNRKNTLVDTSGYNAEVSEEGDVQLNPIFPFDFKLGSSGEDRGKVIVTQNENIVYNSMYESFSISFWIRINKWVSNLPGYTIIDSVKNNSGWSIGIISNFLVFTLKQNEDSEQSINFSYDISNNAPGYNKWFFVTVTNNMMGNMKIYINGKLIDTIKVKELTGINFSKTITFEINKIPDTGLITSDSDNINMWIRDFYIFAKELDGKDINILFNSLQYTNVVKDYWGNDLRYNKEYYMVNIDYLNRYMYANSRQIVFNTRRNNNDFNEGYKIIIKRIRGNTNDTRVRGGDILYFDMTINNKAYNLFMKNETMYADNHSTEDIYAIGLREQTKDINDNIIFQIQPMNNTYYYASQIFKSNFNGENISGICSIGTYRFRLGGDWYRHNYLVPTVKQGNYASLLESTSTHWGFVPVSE
Description: yeast scFv FACS.
As to B1, the binding result is “no binding (tested: ~1 µM)”.

With B2, the binding result is on record as “no binding (tested: ~1 µM)”.

Consider B3, for which the binding result was “no binding (tested: ~1 µM)”.

For the molecule B4, the binding result is listed as “no binding (tested: ~1 µM)”.

In a further test the target is T2, BoNT/D (Clostridium botulinum, UniProt P19321 2-1276).
T2 sequence: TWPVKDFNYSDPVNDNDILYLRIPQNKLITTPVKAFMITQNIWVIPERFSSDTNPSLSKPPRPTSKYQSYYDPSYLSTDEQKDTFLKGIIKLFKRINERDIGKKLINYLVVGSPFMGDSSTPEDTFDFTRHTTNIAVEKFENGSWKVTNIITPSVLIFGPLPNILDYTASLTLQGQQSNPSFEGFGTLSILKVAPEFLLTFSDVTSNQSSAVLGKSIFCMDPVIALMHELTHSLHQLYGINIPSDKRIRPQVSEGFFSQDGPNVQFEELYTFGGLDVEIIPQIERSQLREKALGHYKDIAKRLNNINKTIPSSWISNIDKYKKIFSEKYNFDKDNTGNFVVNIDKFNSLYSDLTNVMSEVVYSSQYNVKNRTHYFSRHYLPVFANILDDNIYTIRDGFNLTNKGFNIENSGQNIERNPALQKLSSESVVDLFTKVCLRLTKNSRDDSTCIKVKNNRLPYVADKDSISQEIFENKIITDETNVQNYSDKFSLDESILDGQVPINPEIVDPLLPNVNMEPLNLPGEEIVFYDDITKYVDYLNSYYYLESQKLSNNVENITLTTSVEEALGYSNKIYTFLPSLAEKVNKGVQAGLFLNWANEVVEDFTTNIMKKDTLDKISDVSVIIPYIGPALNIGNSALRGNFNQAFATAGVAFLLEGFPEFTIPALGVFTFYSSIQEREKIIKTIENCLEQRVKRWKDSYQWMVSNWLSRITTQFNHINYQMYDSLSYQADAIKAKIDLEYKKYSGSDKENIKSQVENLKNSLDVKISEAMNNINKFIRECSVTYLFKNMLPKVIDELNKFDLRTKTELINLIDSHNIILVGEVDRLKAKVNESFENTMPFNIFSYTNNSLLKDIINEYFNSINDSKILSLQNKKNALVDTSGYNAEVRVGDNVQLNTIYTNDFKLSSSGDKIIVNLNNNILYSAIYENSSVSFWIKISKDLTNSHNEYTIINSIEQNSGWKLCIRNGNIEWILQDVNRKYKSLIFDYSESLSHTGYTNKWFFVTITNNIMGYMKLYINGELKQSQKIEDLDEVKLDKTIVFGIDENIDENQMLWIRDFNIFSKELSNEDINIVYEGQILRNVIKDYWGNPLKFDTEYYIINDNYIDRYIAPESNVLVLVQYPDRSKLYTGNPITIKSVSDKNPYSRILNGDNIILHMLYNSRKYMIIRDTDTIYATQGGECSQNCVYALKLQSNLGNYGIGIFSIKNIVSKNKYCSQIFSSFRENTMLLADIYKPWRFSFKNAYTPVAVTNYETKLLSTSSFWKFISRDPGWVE
Nature of the test: yeast scFv FACS.
Consider B1, for which the binding result is “binds”.

Consider B2, for which the binding result is given as “binds”.

Take B3: the binding result is listed as “binds”.

With B4, the binding result was “binds”.
